Series [1] has as its target T1, GST-AtPum2 PUM-HD (Arabidopsis thaliana, UniProt Q9ZW06 614-963).
T1 sequence: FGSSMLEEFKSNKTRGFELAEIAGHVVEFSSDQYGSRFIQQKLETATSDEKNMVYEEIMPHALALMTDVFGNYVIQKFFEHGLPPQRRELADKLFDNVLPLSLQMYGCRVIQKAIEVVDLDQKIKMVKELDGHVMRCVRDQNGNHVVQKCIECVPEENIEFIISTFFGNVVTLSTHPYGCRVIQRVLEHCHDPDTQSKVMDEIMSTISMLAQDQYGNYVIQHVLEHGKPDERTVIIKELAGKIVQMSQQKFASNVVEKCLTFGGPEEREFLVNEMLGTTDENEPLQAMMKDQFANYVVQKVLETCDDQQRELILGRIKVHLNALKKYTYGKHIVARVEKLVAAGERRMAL
In words: EMSA; estimated from free RNA; complex unstable, no accurate Kd; 10 mM HEPES pH 7.4, 1 mM EDTA, 50 mM KCl, 1 mM DTT, 0.01% BSA, 0.01% Tween 20; room temperature 1 h; 6% native gel run at 4 C. To be noted: protein: recombinant; tags: N-terminal GST (pGEX-6P-1); label: 5' 32P; single strand, 19 nt.

Series [2] has as its target T1, GST-AtPum2 PUM-HD. In words: EMSA; apparent Kd; 200 pM labelled RNA; 10 mM HEPES pH 7.4, 1 mM EDTA, 50 mM KCl, 1 mM DTT, 0.01% BSA, 0.01% Tween 20; room temperature 1 h; 6% native gel run at 4 C. To be noted: protein: recombinant; tags: N-terminal GST (pGEX-6P-1); label: 5' 32P; single strand, 19 nt.

Regarding CCAGAAUUUUAUAUAUUCG (ssRNA) [mutant NRE1 (G to U)], the Kd in series [1] is ~354 nM.
On to CCAGAAUUGUAUAUAUUCG (ssRNA) [wildtype NRE1 (hunchback NRE1 BoxB)], for which, in series [2], the Kd was 10.6 nM.

The record behind these values is PMC2848763, “The Puf family of RNA-binding proteins in plants: phylogeny, structural modeling, activity and subcellular localization”.
